Experimental data from PMC7863765 (Journal of Molecular Biology, 2021).

Molecular target: the molecule itself
Experiment: SEC-MALS

B1: untagged full-length human 14-3-3γ (natural protein, UniProt P61981 1-247, looked up)
chain: MVDREQLVQKARLAEQAERYDDMAAAMKNVTELNEPLSNEERNLLSVAYKNVVGARRSSWRVISSIEQKTSADGNEKKIEMVRAYREKIEKELEAVCQDVLSLLDNYLIKNCSETQYESKVFYLKMKGDYYRYLAEVATGEKRATVVESSEKAYSEAHEISKEHMQPTHPIRLGLALNYSVFYYEIQNAPEQACHLAKTAFDDAIAELDTLNEDSYKDSTLIMQLLRDNLTLWTSDQQDDDGGEGNN
notes: human 14-3-3 protein gamma, full length, untagged
- stoichiometry N: 2
